Measurements from article PMC3859194.

Key:
[1] = molecular target: 6His-PopZΔ172–177 (Caulobacter crescentus); test: SEC-MALLS
[2] = molecular target: 6His-PopZ P146A (Caulobacter crescentus); test: SEC-MALLS

stoichiometry N [1]	stoichiometry N [2]	Substance
6		6His-PopZΔ172–177 (domain or fragment)
	3	6His-PopZ P146A (natural protein)
